In patent publication US20120295811, “APTAMERS DIRECTED AGAINST THE MATRIX PROTEIN-1 OF TYPE A INFLUENZA VIRUSES AND USES […]” (published 2012) one finds binding signal (fluorescence units) data, which are given here for 1 substance.

The target in this series is Matrix protein-1 (M1) (Influenza A virus) (UniProt B4URD8). Conditions: low-density aptamer microarray, 50x dilution.

In the case of tRNA, the binding signal (fluorescence units) is -55.
